{"source": "paper PMC2396407", "key": {"[1]": {"target": "T1, p53 (UniProt P04637 1-393)", "T1 sequence (P04637 whole entry)": "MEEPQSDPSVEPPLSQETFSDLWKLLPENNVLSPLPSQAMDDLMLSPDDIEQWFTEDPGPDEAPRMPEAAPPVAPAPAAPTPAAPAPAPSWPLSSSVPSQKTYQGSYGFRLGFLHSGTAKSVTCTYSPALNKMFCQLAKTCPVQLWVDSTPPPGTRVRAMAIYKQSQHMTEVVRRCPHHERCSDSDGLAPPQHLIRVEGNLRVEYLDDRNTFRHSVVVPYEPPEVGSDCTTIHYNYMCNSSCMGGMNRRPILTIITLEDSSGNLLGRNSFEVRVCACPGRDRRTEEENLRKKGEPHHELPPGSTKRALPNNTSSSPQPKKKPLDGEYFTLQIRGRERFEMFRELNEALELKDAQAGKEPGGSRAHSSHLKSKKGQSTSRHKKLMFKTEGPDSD", "test": "competition"}, "[2]": {"target": "T2, TAp63γ (UniProt Q9H3D4-5 40-487)", "T2 sequence": "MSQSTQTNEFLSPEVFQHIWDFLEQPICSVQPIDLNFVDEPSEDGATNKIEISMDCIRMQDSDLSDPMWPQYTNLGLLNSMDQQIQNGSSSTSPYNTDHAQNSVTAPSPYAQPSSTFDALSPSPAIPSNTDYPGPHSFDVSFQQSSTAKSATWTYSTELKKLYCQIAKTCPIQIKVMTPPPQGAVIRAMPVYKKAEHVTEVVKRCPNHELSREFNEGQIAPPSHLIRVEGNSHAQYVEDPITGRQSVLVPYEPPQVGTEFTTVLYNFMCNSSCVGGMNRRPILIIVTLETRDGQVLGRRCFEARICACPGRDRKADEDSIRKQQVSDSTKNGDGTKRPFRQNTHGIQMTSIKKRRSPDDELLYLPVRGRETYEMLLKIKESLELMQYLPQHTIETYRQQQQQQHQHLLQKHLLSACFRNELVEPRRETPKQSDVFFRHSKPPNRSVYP", "test": "competition"}, "[3]": {"target": "T1, p53", "test": "EMSA"}, "[4]": {"target": "T2, TAp63γ", "test": "EMSA"}, "[5]": {"target": "T1, p53", "test": "competition", "remark": "listed apart in the source"}, "[6]": {"target": "T2, TAp63γ", "test": "competition", "remark": "listed apart in the source"}, "[7]": {"target": "T2, TAp63γ", "test": "EMSA, supershift"}, "[8]": {"target": "T1, p53", "test": "EMSA, supershift"}}}
{"binder": "S100A2 site 2 mut-2 (dsDNA) DNA 1: GGGTGGGATCATGTTGAGGCATGTTTGGTTTCCTT DNA 2: AAGGAAACCAAACATGCCTCAACATGATCCCACCC", "values": [{"measurement": "binding result", "setting": "[1]", "result": "binds"}, {"measurement": "binding result", "setting": "[2]", "result": "binds"}]}
{"binder": "mdm2 p53 site (dsDNA) DNA 1: GGGCGGCCGCTGGTCAAGTTGGGACACGTCCGG DNA 2: CCGGACGTGTCCCAACTTGACCAGCGGCCGCCC", "values": [{"measurement": "binding result", "setting": "[3]", "result": "binds"}, {"measurement": "binding result", "setting": "[4]", "result": "binds"}]}
{"binder": "S100A2 site 2 mut-1 (dsDNA) DNA 1: GGGTGGGATTGGATTGAGGTGGATTTGGTTTCCTT DNA 2: AAGGAAACCAAATCCACCTCAATCCAATCCCACCC", "values": [{"measurement": "binding result", "setting": "[5]", "result": "no binding"}, {"measurement": "binding result", "setting": "[6]", "result": "no binding"}]}
{"binder": "p21 (p21WAF1/CIP1 p53 site) (dsDNA) DNA 1: GGCCATCAGGAACATGTCCCAACATGTTGAGCTCT DNA 2: AGAGCTCAACATGTTGGGACATGTTCCTGATGGCC", "values": [{"measurement": "binding result", "setting": "[7]", "result": "binds"}, {"measurement": "binding result", "setting": "[8]", "result": "binds"}]}
